In patent publication US20040030097A1, “Peptide mimetics” (priority 2000, published 2004):

Assays:
cell proliferation = conditions: EPO, read-out: EC50 (concentration for half maximal response); cited from earlier work
[1] = biological target: T1, IL-4Rα (recombinant extracellular domain of the receptor α-chain [C182A,Q206C]-IL4-BP) (Homo sapiens, UniProt P24394, C207A/Q231C); assay: Surface plasmon resonance binding assay (BIAcore 2000) with immobilized IL-4Rα; conditions: 25° C., HBS buffer, physiological salt concentration
T1 construct: A recombinant extracellular domain of the receptor α-chain [C182A,Q206C]-IL4-BP was immobilized
T1 sequence (P24394 26-232 C207A/Q231C): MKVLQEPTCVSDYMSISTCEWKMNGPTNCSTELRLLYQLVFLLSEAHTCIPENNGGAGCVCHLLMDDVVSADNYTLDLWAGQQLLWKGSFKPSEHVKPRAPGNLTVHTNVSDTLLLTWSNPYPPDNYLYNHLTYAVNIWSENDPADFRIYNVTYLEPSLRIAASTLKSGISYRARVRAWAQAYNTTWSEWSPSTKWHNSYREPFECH
Protocol: The binding affinities of the designed peptide mimetics were measured by surface plasmon resonance using a BIAcore 2000 (Pharmacia Biosensor AB). A recombinant extracellular domain of the receptor α-chain [C182A,Q206C]-IL4-BP was immobilized at a biosensor CM5 to a density of 1500 to 2000 pg/mm^2, as described by Shen et al. (Shen et al., 1996). Ligand binding was analyzed at 25° C. by perfusion with HBS buffer (10 mM Hepes, pH 7.4/150 mM NaCl/3.4 mM EDTA/0.005% surfactant P20) at a flow rate of 50 μl/min.

[2] = Far UV circular dichroism, helical content; type: physicochemical; conditions: far UV CD, 278 K, 15 μM peptide, from ellipticity at 222 nm
Protocol: The far UV CD spectra of the peptide was recorded, on a Jasco-710 instrument, at 278 K, in a cuvette with a 2 mm path. Measurements were made every 0.1 nm, with a response time of 2 s and a bandwidth of 1 nm, at a scan speed of 50 nm/min. The spectra shown in the text represent an average over 20 scans. The peptide concentration, calculated from the absorbance at 280 nm (Pace et al., 1995) was 15 μM. The helical percentage was calculated from the mean residue ellipticity at 222 nm, taking into account the peptide length (Chen et al., 1974), according to the following:
where n is the number of residues in the peptide and θ^obs222 nm is the ellipticity of the peptide at 222 nm. The CD experiments were carried out using the same buffer conditions as in the surface plasmon resonance assays.
(§1) A helical content of 34% was calculated as described above was. […] (FIG. 5).

[3] = Temperature denaturation monitored by CD at 222 nm; type: physicochemical
Protocol: The thermal denaturation was measured by monitoring the change in signal at 222 nm over a temperature range of 5-80° C., in a cuvette with a 2 mm path. Measurements were made in 0.5 degrees increments, with a response time of 2 s and a bandwidth of 1 nm, at a temperature slope of 50° C./h. The peptide concentration calculated from the absorbance at 280 nm was 15 μM (Pace et al., 1995).
as §1

HeLa cells = assay: Toxicity experiments with HeLa cells; type: cell-based

Substance	EC50 (cell proliferation) [nM]	Kd [1] [µM]	helical content [2] [%]	reversibility of temperature-induced denaturation ([3]; 5-80° C., CD signal recovered upon cooling from 80 to 5° C.)	loss of helical content at assay temperature ([3]; 25° C.)	toxicity to mammalian cells in combination with IL-4 (HeLa cells; in combination with IL-4 at concentrations of up to 500 μM)	concentration up to which non-toxic to mammalian cells (HeLa cells; solup10 alone) [µM]
EPO: cytokine erythropoietin	0.02						
solup10: 45-residue ROP-derived mini-protein containing the IL-4 binding site: MGTDIQRYERAQTLALLEKLNELDADKQADRLRKRLARNDWLFGS		40	34	reversible process	lost half of its helical content	non-toxic	≥ 500
